The target of experiment [1] is T1, wild-type human alpha-synuclein (human, UniProt P37840 1-140). In words: ELISA on alpha-synuclein, OD against ng/mL of antibody.
For experiment [2], the target named is T1, wild-type human alpha-synuclein. In words: SPR (Biacore), antibody captured on anti-human IgG chip, alpha-synuclein flowed over, 1:1 model global fit.
Experimental: An anti-human IgG CMS Biacore chip was prepared following the protocol supplied by GE Healthcare.
Data were collected and double reference subtracted to account for drift and a small amount of nonspecific binding. The data were analyzed using Biacore evaluation software using a 1:1 model and a global fit.

B1: humanized 5C1 antibody version H1L1 (antibody, V domains shown)
VH: QVQLVQSGAELKKPGSSVKVSCKASGYTFTNYWMNWVRQAPGQGLEWIGATNPNNGYTDYNQRFKDRATLTADKSTNTAYMELSSLRSEDTAVYYCARGGHLAYWGQGTLVTVSS
VL: DVVMTQSPLSLSVSPGEPASISCRSSQSLFHSKGNTYLHWYLQKPGQSPKLLINRVSNRFSGVPDRFSGSGSGTDFTLKISRVEAEDVGVYFCSQSAHVPWTFGGGTKVEIK
notes: Only variable regions are tied to this version
Take B1: the binding result in experiment [1] is “no binding (tested: 1000 ng/mL)”.

B2: humanized 5C1 antibody version H3L4 (antibody, V domains shown)
VH: QVQLVQSGAELKKPGSSVKVSCKASGYTFTNYWMNWVRQAPGQGLEWIGATNPNNGYTDYNQRFKDRATLTADKSTNTAYMELSSLRSEDTAVYFCASGGHLAYWGQGTLVTVSS
VL: DIVMTQSPLSLSVSPGEPASISCRSSQSLFHSKGNTYLHWYLQKPGQSPQLLIYRVSNRFSGVPDRFSGSGSGTDFTLKISRVEAEDVGVYYCSQSAHVPWTFGGGTKVEIK
notes: Only variable regions are tied to this version; also called h5C1_H3L4
For the molecule B2, the dissociation constant Kd in experiment [2] came to 1240 nM.

B3: humanized 5C1 antibody version H5L4 (antibody, V domains shown)
VH: QVQLVQSGAELKKPGSSVKVSCKASGYTFTNYWMNWVRQAPGQGLEWIGATNPNNGYTDYNQRFKDRVTITADKSTNTAYMELSSLRSEDTAVYYCASGGHLAYWGQGTLVTVSS
VL: DIVMTQSPLSLSVSPGEPASISCRSSQSLFHSKGNTYLHWYLQKPGQSPQLLIYRVSNRFSGVPDRFSGSGSGTDFTLKISRVEAEDVGVYYCSQSAHVPWTFGGGTKVEIK
notes: Only variable regions are tied to this version; also called h5C1_H5L4
Turning to B3, the Kd in experiment [2] came out at 1060 nM. The Kd values of the last two molecules are within 1.5-fold of each other.

B4: humanized 5C1 antibody version H4L4 (antibody, V domains shown)
VH: QVQLVQSGAELKKPGSSVKVSCKASGYTFTNYWMNWVRQAPGQGLEWIGATNPNNGYTDYNQRFKDRATLTADKSTNTAYMELSSLRSEDTAVYYCASGGHLAYWGQGTLVTVSS
VL: DIVMTQSPLSLSVSPGEPASISCRSSQSLFHSKGNTYLHWYLQKPGQSPQLLIYRVSNRFSGVPDRFSGSGSGTDFTLKISRVEAEDVGVYYCSQSAHVPWTFGGGTKVEIK
notes: Only variable regions are tied to this version; also called h5C1_H4L4
On to B4, for which the Kd in experiment [2] amounted to 601 nM.

The values are drawn from patent US20170174777A1 (PROTHENA BIOSCIENCE, published 2017).
